Results taken from US20060110388A1 (APPLIED MOLECULAR EVOLUTION, published 2006).

Experiments:
β Amyloid peptide 1-40 [1] = molecular target: T1, β Amyloid peptide 1-40 (human, UniProt P05067 672-711); test: KinExA, mAb
T1 construct: domain: β Amyloid peptide 1-40; Biotinylated peptide 1-40 (Biosource) on avidin Sepharose only captured free antibody in KinExA; also called Aβ 1-40; human Aβ (1-40)
Description: (§1) For KinExA™ kₒₙ and koff measurements, antigen and antibody were prepared as described above. Antigen and antibody samples at 2× active concentration were prepared in PBSA with 0.2% BSA. Samples were mixed 1:1 and the timing for the experiment started. Typical 1× concentrations were 1 nM antibody active site concentration ([…]) and 2 nM antigen (8.6 ng/mL). A KinExA™ instrument (Sapidyne) and a kineticsdirect run file were used to follow the reaction. Time for each measurement was determined using the manufacturer's instructions. Free antibody remaining in the reaction was captured using β amyloid coated beads packed into the flow cell washed with PBSA and detected at each time point using 1:250 Goat anti-human Cy5 (Jackson) in PBSA. The flow cell was then flushed and recharged with beads for the next measurement, the process continued until a complete decay curve obtained. The data was analyzed using the KinExA™ Inject software.
(§2) Association rate constants (kₒₙ) of m266 and antibodies of the present invention with Aβ were determined by KinExA™, using methods as described above in Example 1. The results of two separate kₒₙ determinations by KinExA™, in which separate preparations of antibodies were used, are provided in Tables 7 and 8.

β Amyloid peptide 1-40 [2] = molecular target: T1, β Amyloid peptide 1-40; test: BIAcore, mAb captured, Aβ 1-40 injected, first set of preparations
Description: (§3) BIAcore™ is an automated biosensor system that measures molecular interactions (Karlsson, et al. (1991) J. Immunol. Methods 145: 229-240). BIAcore™ analyses described herein were carried out at 25° C. In these experiments, antibody was immobilized at low density on a BIAcore™ CM5 or B1 chip. For the m266 antibody goat anti-mouse Fc (Jackson Immunoresearch) immobilized on CM5 in flow cell 2 was used for measuring binding constants. Goat anti-mouse was used as control antibody in flow cell 1. For the humanized antibodies, protein A or protein A/G was immobilized via amine coupling to flow cells 1 and 2 of a B1 or CM5 sensor chip.
(§4) Antibody was then captured only to flow cell 2 at desired levels (usually a 10-60 second injection of antibody) and allowed to stabilize for 5 minutes. For these experiments, a fresh aliquot of Aβ 1-40 was thawed and then diluted 1:10 in HBS-EP running buffer. The 1:10 dilution was used to make up a 200 nM Aβ solution which was serially diluted (1:2 dilutions) to a lowest concentration of 6.25 nM. Each concentration was injected over the surface for 5 minutes at a flow rate of 50 μl/min (250 μl total). The Aβ and antibody were eluted from both flow cells with a 40s injection of glycine pH 1.5. The signal is allowed to stabilize for 2 minutes before the next cycle. The data from flow cell 1 is subtracted from flow cell 2 to account for any bulk shifts due to buffer differences or non-specific binding to the sensor chip or Protein A. The various concentrations were injected randomly and each concentration was run in duplicate. Two control runs of buffer only were used to control for any dissociation of antibody from the capture surface. The data was analyzed using the Biaevalution™ software. A 1:1 model with mass transfer and a local Rmax was used as the best fit for the data.
Concentrations of human Aβ (1-40) from 200 nM to 1.6 nM in 2-fold serial dilution were used to obtain on-rate constant. […]

β Amyloid peptide 1-40 [3] = molecular target: T1, β Amyloid peptide 1-40; test: BIAcore; against m266
Description: as §3, §4
Concentrations of human Aβ (1-40) from 200 nM to 1.6 nM in 2-fold serial dilution were used to obtain on-rate constant. The upper half of Table 6 represents determinations made with a first set of antibody preparations, while the lower half represents determinations made with a second set of antibody preparations

β Amyloid peptide 1-40 [4] = molecular target: T1, β Amyloid peptide 1-40; test: KinExA, mAb; against m266
Description: as §1, §2

β Amyloid peptide 1-40 [5] = molecular target: T1, β Amyloid peptide 1-40; test: KinExA, mAb; remark: listed apart in the source
Description: (§5) Typical 1× concentrations were 10 pM of antibody active sites (0.75 ng/mL) and an upper antigen concentration of 100 pM (0.43 ng/mL). The samples were then allowed to equilibrate for 24-72 hours at room temperature. A KinExA™ instrument (Sapidyne) and standard KD run file were then used to determine the KD of the system. Briefly, the KinExA™ flow cell was charged with the β Amyloid peptide coated beads and washed with PBSA. For the first sample, free antibody in solution was captured by the beads washed with PBSA and detected using 1:250 Goat anti-human Cy5 (Jackson Immunochemicals) in PBSA. The flow cell was then flushed, re-charged with beads and the next sample analyzed. The process was repeated until all 12 samples were analyzed.

β Amyloid peptide 1-40 [6] = molecular target: T1, β Amyloid peptide 1-40; test: KinExA, mAb; against m266; remark: listed apart in the source
Description: as §5

β Amyloid peptide 1-40 [7] = molecular target: T1, β Amyloid peptide 1-40; test: KinExA, mAb, equilibration 16 h
Description: as §5, with “The samples were then allowed to equilibrate for 24-72 hours at room temperature.” left out
as §1

T1 sequence (P05067 672-711 limits assumed): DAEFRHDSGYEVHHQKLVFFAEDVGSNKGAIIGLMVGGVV

B1: 1B7 monoclonal antibody (IgG1) (antibody, V domains shown)
VH: EVQLVESGGGLVKPGGSLRLSCAASGFTFSRYSMSWVRQAPGKGLEWVGQINSRGNSTYYPDTVKGRFTISRDDSKNTLYLQMNSLKTEDTAVYYCTTGDFWGQGTLVTVSS
VL: DIVMTQTPLSLSVTPGQPASISCRSSQSLIYSDGNAYLHWYLQKPGQSPQLLIYKVSNRFSGVPDRFSGSGSGTDFTLKISRVEAEDVGVYYCSQSTHSPWTFGGGTKVEIK
kon (β Amyloid peptide 1-40 [1]): 630000 M⁻¹ s⁻¹ | kon (β Amyloid peptide 1-40 [2]): 590000 M⁻¹ s⁻¹ | Fold Increase (kon) (β Amyloid peptide 1-40 [3]): 5 fold | Fold increase in kon (β Amyloid peptide 1-40 [4]): 3 fold | Kd (β Amyloid peptide 1-40 [5]): 0.674 nM | Fold increase in affinity (β Amyloid peptide 1-40 [6]): 0.11 fold | Kd (β Amyloid peptide 1-40 [7]): 0.122 nM | koff (β Amyloid peptide 1-40 [7]): 0.000214 s⁻¹ | kon (β Amyloid peptide 1-40 [7]): 1.76e+06 M⁻¹ s⁻¹
